Biological target: the molecule itself
Assay: SEC

B1: soluble, C-terminally His-tagged extracellular domain of WT JAM-A (junctional adhesion molecule-A) (domain or fragment, UniProt Q9Y624 28-238, looked up)
chain: SVTVHSSEPEVRIPENNPVKLSCAYSGFSSPRVEWKFDQGDTTRLVCYNNKITASYEDRVTFLPTGITFKSVTREDTGTYTCMVSEEGGNSYGEVKVKLIVLVPPSKPTVNIPSSATIGNRAVLTCSEQDGSPPSEYTWFKDGIVMPTNPKSTRAFSNSSYVLNPTTGELVFDPLSASDTGEYSCEARNGYGTPMTSNAVRMEAVERNVGV
stoichiometry N: 2

From paper PMC4019489 (Molecular Biology of the Cell, 2014)
